For this assay, the target named is Biotin-Lysozyme (hen) (UniProt P00698). Put plainly: flow. The following applies: scFv.

pKd: −log10 of the molar value.

Sequence of Biotin-Lysozyme (hen) (P00698 19-147): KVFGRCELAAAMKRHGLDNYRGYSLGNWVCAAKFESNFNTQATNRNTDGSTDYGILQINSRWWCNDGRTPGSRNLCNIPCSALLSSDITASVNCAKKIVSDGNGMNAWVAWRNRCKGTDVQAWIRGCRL

Regarding scFv D1.3 (from UniProt P32781 19-87), the pKd is 9.30. Under “scFv D1.3 (from UniProt P42212 1-238; P32781 19-87)” stands 9.30.

For the origin of these results see patent publication US20170204445A1, “IN VIVO SITE-SPECIFIC PROTEIN TAGGING USING ENGINEERED SORTASE VARIANTS” (priority 2016, published 2017).
